The supplement of paper PMC9428881
± gives the standard error.

Experiment: background-corrected fluorescence of 3'-dye-labeled ssDNA relative to brightest sequence (3'-GCGCG) (fraction); higher = brighter dye fluorescence (less quenching)
Outline: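 Fluorescence values are background-corrected using unlabeled oligos and expressed relative to the brightest sequence. The single-stranded DNA was made on glass slides by light-directed phosphoramidite synthesis, each of 1024 permuted pentamers ending beside a 3' Cy3 or Cy5 dye. Scans at 532 or 635 nm were taken before and after overnight ethylenediamine/ethanol deprotection, and each value averages 10 features per array and at least 3 syntheses.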

Sequence	background-corrected fluorescence (dye: Cy3 (3' terminal))	background-corrected fluorescence (dye: Cy5 (3' terminal))
TTTTTTGCGCATGATGATCATTTTTTTTTTTTTTTATCCG [GCCTA]	0.518 ± 0.023	0.427 ± 0.035
TTTTTTCATGATGCGCATGCTTTTTTTTTTTTTTTGCATA [ATACG]	0.574 ± 0.02	0.431 ± 0.024
TTTTTGCAGCATGAGCAGCATTTTTTTTTTTTTTTTTCTT	0.481 ± 0.015	0.348 ± 0.026
TTTTTTGCGCATGAGCAGCATTTTTTTTTTTTTTTATCTT [TTCTA]	0.458 ± 0.0056	0.35 ± 0.024
TTTTTTGCTGCGCAGCATGCTTTTTTTTTTTTTTTAATTA [ATTAA]	0.564 ± 0.022	0.43 ± 0.027
TTTTTTGCTCATGAGCATCATTTTTTTTTTTTTTTAGCTG [GTCGA]	0.524 ± 0.005	0.424 ± 0.058
TTTTTGCATGAGCATCATCATTTTTTTTTTTTTTTTCTGG [GGTCT]	0.563 ± 0.024	0.43 ± 0.035
TTTTTTGCTCAGCATGATCATTTTTTTTTTTTTTTAGTCG [GCTGA]	0.579 ± 0.024	0.444 ± 0.036
TTTTTTCAGCATGAGCAGCATTTTTTTTTTTTTTTGTCTT [TTCTG]	0.505 ± 0.017	0.364 ± 0.03
TTTTTTGCTCAGCATCAGCATTTTTTTTTTTTTTTAGTGT [TGTGA]	0.572 ± 0.021	0.474 ± 0.033
TTTTTTGATGATGAGCAGCATTTTTTTTTTTTTTTCCCTT	0.452 ± 0.011	0.359 ± 0.025
TTTTTGCAGCATGAGCATGATTTTTTTTTTTTTTTTTCTC [CTCTT]	0.389 ± 0.03	0.272 ± 0.035
TTTTTTGATGATGAGCATCATTTTTTTTTTTTTTTCCCTG [GTCCC]	0.528 ± 0.048	0.364 ± 0.024
TTTTTTCATGATGATCAGCATTTTTTTTTTTTTTTGCCGT	0.651 ± 0.025	0.487 ± 0.022
TTTTTTGAGCATGCTCAGCATTTTTTTTTTTTTTTCTAGT [TGATC]	0.612 ± 0.019	0.451 ± 0.029
TTTTTTCATCATGCGCATCATTTTTTTTTTTTTTTGGATG [GTAGG]	0.533 ± 0.031	0.388 ± 0.026
TTTTTTCATGAGCATGCTGATTTTTTTTTTTTTTTGCTAC [CATCG]	0.424 ± 0.02	0.338 ± 0.031
TTTTTTGCTGAGCATCAGCATTTTTTTTTTTTTTTACTGT [TGTCA]	0.63 ± 0.027	0.45 ± 0.06
TTTTTTGATGCTGATCATCATTTTTTTTTTTTTTTCACGG [GGCAC]	0.584 ± 0.023	0.525 ± 0.03
TTTTTTGATGCTCAGCATGCTTTTTTTTTTTTTTTCAGTA [ATGAC]	0.609 ± 0.021	0.461 ± 0.022
TTTTTGCAGCATGATCATGATTTTTTTTTTTTTTTTTCGC [CGCTT]	0.503 ± 0.031	0.406 ± 0.088
TTTTTTCATCATGATCATGATTTTTTTTTTTTTTTGGCGC [CGCGG]	0.627 ± 0.028	0.551 ± 0.064
TTTTTTGCTGCTGAGCATGCTTTTTTTTTTTTTTTAACTA [ATCAA]	0.5388 ± 0.0047	0.406 ± 0.019

Sequence	background-corrected fluorescence (dye: Cy3 (3' terminal))	background-corrected fluorescence (dye: Cy5 (3' terminal))
TTTTTTGCTGCTCATGATGCTTTTTTTTTTTTTTTAAGCA [ACGAA]	0.571 ± 0.014	0.451 ± 0.026
TTTTTTGATGATGCTCAGCATTTTTTTTTTTTTTTCCAGT [TGACC]	0.615 ± 0.023	0.458 ± 0.021
TTTTTGCATGCTGCGCATCATTTTTTTTTTTTTTTTAATG [GTAAT]	0.513 ± 0.02	0.363 ± 0.023
TTTTTTGAGCATGATCATGATTTTTTTTTTTTTTTCTCGC [CGCTC]	0.548 ± 0.032	0.412 ± 0.035
TTTTTGCATGATGATCAGCATTTTTTTTTTTTTTTTCCGT [TGCCT]	0.613 ± 0.021	0.484 ± 0.027
TTTTTTGCGCAGCATGATCATTTTTTTTTTTTTTTATTCG [GCTTA]	0.519 ± 0.034	0.388 ± 0.021
TTTTTTGATGCTGCTGCTGATTTTTTTTTTTTTTTCAAAC	0.428 ± 0.03	0.323 ± 0.031
TTTTTGCATGATGCTGATGCTTTTTTTTTTTTTTTTCACA [ACACT]	0.485 ± 0.015	0.379 ± 0.034
TTTTTGCATGCTGATGCTGCTTTTTTTTTTTTTTTTACAA [AACAT]	0.538 ± 0.025	0.433 ± 0.059
TTTTTTCATGCTCATCATCATTTTTTTTTTTTTTTGAGGG [GGGAG]	0.759 ± 0.02	0.553 ± 0.041
TTTTTTGAGCATGCTGATGATTTTTTTTTTTTTTTCTACC [CCATC]	0.375 ± 0.032	0.284 ± 0.016
TTTTTGCATCATGATCATGCTTTTTTTTTTTTTTTTGCGA [AGCGT]	0.675 ± 0.036	0.616 ± 0.044
TTTTTTGATCATCATGCTGATTTTTTTTTTTTTTTCGGAC [CAGGC]	0.531 ± 0.011	0.389 ± 0.034
TTTTTGCATGCGCATGCTGCTTTTTTTTTTTTTTTTATAA [AATAT]	0.55 ± 0.038	0.441 ± 0.069
TTTTTTGATGCTGCTGCTGCTTTTTTTTTTTTTTTCAAAA [AAAAC]	0.569 ± 0.015	0.47 ± 0.03
TTTTTTGATGCTGATGATGATTTTTTTTTTTTTTTCACCC [CCCAC]	0.37 ± 0.028	0.271 ± 0.019
TTTTTTCATGCGCAGCATGCTTTTTTTTTTTTTTTGATTA [ATTAG]	0.547 ± 0.022	0.424 ± 0.034
TTTTTTCAGCAGCATCAGCATTTTTTTTTTTTTTTGTTGT	0.679 ± 0.031	0.494 ± 0.027
TTTTTTCATGATGATCATGCTTTTTTTTTTTTTTTGCCGA [AGCCG]	0.621 ± 0.024	0.547 ± 0.034
TTTTTTGATGATGCTGATGATTTTTTTTTTTTTTTCCACC	0.378 ± 0.0043	0.275 ± 0.026
TTTTTGCAGCATGAGCATCATTTTTTTTTTTTTTTTTCTG [GTCTT]	0.472 ± 0.026	0.338 ± 0.046
TTTTTTCATCATGATGCTGCTTTTTTTTTTTTTTTGGCAA [AACGG]	0.5847 ± 0.005	0.504 ± 0.041
TTTTTTCATCATGCTCATGCTTTTTTTTTTTTTTTGGAGA [AGAGG]	0.726 ± 0.026	0.594 ± 0.04

Sequence	background-corrected fluorescence (dye: Cy3 (3' terminal))	background-corrected fluorescence (dye: Cy5 (3' terminal))
TTTTTTGCTCATGCTGATGCTTTTTTTTTTTTTTTAGACA [ACAGA]	0.522 ± 0.06	0.383 ± 0.029
TTTTTTCATCATGCGCATGATTTTTTTTTTTTTTTGGATC [CTAGG]	0.445 ± 0.019	0.35 ± 0.055
TTTTTTGATCATGATGATGCTTTTTTTTTTTTTTTCGCCA [ACCGC]	0.49 ± 0.03	0.423 ± 0.051
TTTTTTGCTCATCAGCATCATTTTTTTTTTTTTTTAGGTG [GTGGA]	0.585 ± 0.025	0.482 ± 0.017
TTTTTTGCTGCTGATCAGCATTTTTTTTTTTTTTTAACGT [TGCAA]	0.606 ± 0.023	0.45 ± 0.025
TTTTTTGCTGCTCATGCGCATTTTTTTTTTTTTTTAAGAT [TAGAA]	0.564 ± 0.024	0.496 ± 0.081
TTTTTTGCTGCGCATGCTGCTTTTTTTTTTTTTTTAATAA	0.578 ± 0.031	0.446 ± 0.022
TTTTTTGCTGCGCATGATGCTTTTTTTTTTTTTTTAATCA [ACTAA]	0.489 ± 0.025	0.382 ± 0.028
TTTTTGCAGCATCATGATCATTTTTTTTTTTTTTTTTGCG [GCGTT]	0.559 ± 0.028	0.46 ± 0.036
TTTTTTGCTGATCATGAGCATTTTTTTTTTTTTTTACGCT [TCGCA]	0.5 ± 0.065	0.391 ± 0.029
TTTTTGCAGCAGCATGATGCTTTTTTTTTTTTTTTTTTCA [ACTTT]	0.482 ± 0.032	0.373 ± 0.046
TTTTTTCATCATGATCATGCTTTTTTTTTTTTTTTGGCGA [AGCGG]	0.714 ± 0.035	0.618 ± 0.07
TTTTTTCATGATGATGCTGATTTTTTTTTTTTTTTGCCAC [CACCG]	0.393 ± 0.022	0.299 ± 0.015
TTTTTTGATGATGATGCGCATTTTTTTTTTTTTTTCCCAT [TACCC]	0.49 ± 0.03	0.356 ± 0.015
TTTTTTGCTGAGCATCATCATTTTTTTTTTTTTTTACTGG [GGTCA]	0.623 ± 0.022	0.481 ± 0.023
TTTTTTGATCATCATCATCATTTTTTTTTTTTTTTCGGGG [GGGGC]	0.673 ± 0.024	0.65 ± 0.044
TTTTTTGATGCTCAGCAGCATTTTTTTTTTTTTTTCAGTT [TTGAC]	0.598 ± 0.018	0.434 ± 0.015
TTTTTGCATCATGCTCAGCATTTTTTTTTTTTTTTTGAGT	0.659 ± 0.023	0.539 ± 0.029
TTTTTTCATGCTGATCAGCATTTTTTTTTTTTTTTGACGT [TGCAG]	0.601 ± 0.016	0.474 ± 0.028
TTTTTTGCTCATCATCATGATTTTTTTTTTTTTTTAGGGC [CGGGA]	0.598 ± 0.023	0.478 ± 0.064
TTTTTTCATCATGCTGCGCATTTTTTTTTTTTTTTGGAAT [TAAGG]	0.594 ± 0.033	0.453 ± 0.043
TTTTTGCATGATCATGCTCATTTTTTTTTTTTTTTTCGAG [GAGCT]	0.616 ± 0.029	0.478 ± 0.035
TTTTTTGCTCATGATCATGCTTTTTTTTTTTTTTTAGCGA	0.708 ± 0.033	0.58 ± 0.052
